This test addresses glycogen-synthase kinase 3β (GSK3β) (UniProt P49841 1-420). Nature of the test: SPR. (In general: SPR reads the build-up and loss of mass on a sensor chip optically.)

One may read the Kd as the equilibrium constant for the complex coming apart.

B1: Nav1.6 C-terminal tail (domain or fragment)
chain: LENFSVATEESADPLSEDDFETFYEIWEKFDPDATQFIEYCKLADFADALEHPLRVPKPNTIELIAMDLPMVSGDRIHCLDILFAFTKRVLGDSGELDILRQQMEERFVASNPSKVSYEPITTTLRRKQEEVSAVVLQRAYRGHLARRGFICKKTTSNKLENGGTHREKKESTPSTASLPSYDSVTKPEKEKQQRAEEGRRERAKRQKEVRESKC
Molecule B1 showed a Kd of 165 nM.

For the origin of these results see PMC6150488 (Cell reports, 2018).
